Tested on: K4 kissing-loop RNA reporter
Test: apparent KD of K4 kissing-loop reporter; higher = weaker reporter binding
Conditions: Eterna round: R107
Procedure: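 RNA-MaP round R107: designed RNA switches with theophylline, tryptophan, arginine or FMN aptamers are transcribed on-chip within common flanks. They are titrated with a labelled K4 kissing-loop RNA reporter in RNA-MaP buffer (100 mM Tris pH 7.5, 80 mM KCl, 4 mM MgCl2), without ligand or with the indicated ligand. Median apparent KD per design.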

[1] = input ligand: theophylline 20 uM
[2] = input ligand: tryptophan 2.4 mM
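Further: bound reporter read as fluorescence of individual clusters on recovered sequencing chips by microscopy, with normalized cluster intensities fitted with a binding model.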

Sequence	apparent KD of K4 kissing-loop reporter (input ligand: FMN 200 uM) [nM]	apparent KD of K4 kissing-loop reporter (input ligand: arginine 13.2 mM) [nM]	apparent KD of K4 kissing-loop reporter (input ligand: none) [nM]	apparent KD of K4 kissing-loop reporter [1] [nM]	apparent KD of K4 kissing-loop reporter [2] [nM]
UAGUCAUACAGAGGAUAUCGUAUGAGUGAUGUUCAUACGACAUAAUCGAGUUGUAUCGAUGUUCGACGAGAAGGCUGUAUGACUA [FMN B Ex t1b]	210	89.6	118	106	111
AUUUAUUCGAGUGAUGUUCGUGAUUUUUCAGAGGAUAUGCGUAAUAGCAGAAGGCUGUAUUUAUAUAUAUUUUGAUUUUUUUAAA [JR_Nu3_ExcFMNA_Sub024]	82.2	122	64.6	99.4	61.8
GGCUUAUUCUAUGAUACCAGCGUCACAUCGGGACUGCGCACGCAGCAGGCGAGUGAUGUUCGCCCUUGGCAGCAUCUCGGCGACU [theeternabot_exclusion_KL_Theo_B_26]	373	230	249	250	232
UCUGGUAUAUCUGAUACCAGAGUAUAGUAUCAAUUGCAUAUGGAGUGAUGUUCCAUACAACUCCCUUGGCAGCAGAUCUAUCUCU [Same State Theophylline B GF 24]	219	249	246	286	195
AUUUUUUUGUCAGGAUAUUAGUGUGGGUUUGGUUUGUUAGUGAUGUUGAUAUUUGGUUUAUGUAUUUAAGAAGGGAUUUAGCGGU [frrvemullin]	563	359	408	492	375
GUGCGGCUAGUGAUGUUGGUUGUGUGGGAAGGAGCGCAGAUUCAUGCAGGUAGGUCGCCCACACGUCUGAAAGGAUGAUAAUUCA [#12 K4 Arginine A Same State]	409	306	354	407	350
UGAUUGCCAGUGAUGUUGGCAGUUUCUGAAGGAGCGCGUGAAAACGCAGGUAGGUCGCAGAUUAGUGCCAAUUGAUCGAAAGAUC [KL-XArg-A4]	208	227	214	193	205
GGAAGAAGUGGUGUUGAUUAAGAAGCGGAAGGAGCGCCGAAGAAGGCAGGUAGGUCGCCGAAAUAUAGUGAUGUUAUAUAAAAGG [ExArg.A]	168	170	229	168	199
AGAGUUAUGCGAGGAUAUGCGGUUAGUACUCAAAGAGUACUAACGCAGAGUGAUGUUCUGUGAAACACAGAAGGUGCAUAACUCA [Omei KL FMN B SS B v2]	950	116	249	205	148
GCCGUACGCAUGGAUACCAGUCUAAGAGUGAUGUUCUUACCGAUUGCGCCUGGAUCAUUAGACCCUUGGCAGCCAUGCGUACGGC	155	117	126	148	146
AAAUUCUUUUUUUUAUUUAAGUUUUCAGAAGGAGCGUGGUAGUACACAGGUAGGUCGCUGAAUUUUGGGCUAGUGAUGUUAGUUA [whbob_SS_Arginine_A_sa114]	144	195	200	191	160

— the supplement of paper PMC9170038
